Laboratory results published in US5541288A, “Peptide having elastase inhibitory activity and producing method thereof” (Nissin Shokuhin Kabushiki Kaisha, priority 1993, dated 1996).
Where two headings read alike, the source gives them in different places.

T1: human neutrophil elastase (Homo sapiens, UniProt P08246)
T1 sequence (P08246 30-267): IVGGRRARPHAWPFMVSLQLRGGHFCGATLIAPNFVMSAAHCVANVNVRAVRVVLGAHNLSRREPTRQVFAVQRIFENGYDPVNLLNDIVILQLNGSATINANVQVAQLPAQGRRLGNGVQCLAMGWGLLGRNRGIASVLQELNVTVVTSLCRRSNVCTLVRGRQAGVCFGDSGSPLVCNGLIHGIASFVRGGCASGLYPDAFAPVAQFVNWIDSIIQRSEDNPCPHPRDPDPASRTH

T2: bovine pancreas trypsin (Bos taurus, UniProt P00760)
T2 construct: purchased Washington Biochemicals; host or cells: bovine pancreas
T2 sequence (P00760 24-246): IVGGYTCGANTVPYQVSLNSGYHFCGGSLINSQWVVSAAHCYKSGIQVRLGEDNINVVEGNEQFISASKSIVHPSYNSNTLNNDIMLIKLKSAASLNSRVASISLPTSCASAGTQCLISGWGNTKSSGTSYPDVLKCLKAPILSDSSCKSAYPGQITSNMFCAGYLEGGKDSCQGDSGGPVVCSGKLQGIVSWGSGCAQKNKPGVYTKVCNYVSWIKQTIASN


How the values were obtained:
Format in all cases: biochemical
[1] = biological target: T1, human neutrophil elastase; assay: Determination of Ki value against human neutrophil elastase (fluorogenic substrate MeOSuc-Ala-Ala-Pro-Val-7AMC); conditions: 30° C., pH 7.5, purified peptides with recovered activity, read-out: Inhibitory Activity against Human Neutrophil Elastase Ki
Description: Determination of Ki value of the samples of purified peptides of Example 7 against human neutrophil elastase was accomplished as follows.
10 μl of solution of human neutrophil elastase (Attends Research), (the concentration of which was adjusted to 25 μM with the following buffer), and 10 μl of test sample (the concentration of which was appropriately adjusted) were added to buffer containing 30 μl of 100 mM Tris-HCl (pH 7.5), 500 mM NaCl, 0.01% BSA, and left for 20 minutes at 30° C. Then, 200 μl of MeOSuc-Ala-Ala-Pro-Val-7AMC solution (Cambridge Research Biochemicals) containing 1% dimethyl-sulfoxide (hereinafter referred to as "DMSO") was added to the mixture to adjust the concentration thereof to 0.2 mM, 0.3 mM and 0.4 mM, and reacted at 30° C. Fluorescence at 450 nm excited at 365 nm was measured over 0 to 3 minutes with a spectrophotofluorometer (F-3000, HITACHI), and an initial reaction velocity was calculated. Ki value was determined by preparing a graph having a vertical axis of the reciprocal of initial reaction velocity and a horizontal axis of sample concentration, and then plotting on the graph lines for each of the three substrate concentrations and reading the intersection point of the three lines so obtained.

bovine pancreas trypsin = biological target: T2, bovine pancreas trypsin; assay: Determination of Ki value against bovine pancreas trypsin (substrate Bz-DL-Arg-pNA); conditions: 30° C., pH 8.0
Description: Furthermore, the Ki value against trypsin was determined as follows.
Firstly, buffer containing 20 μl of 10 mM CaCl2, 50 mM Tris-HCl (pH 8.0) was mixed with 10 μl of test sample (1.2~6 μM) and 10 μl of 4.2 μM bovine pancreas trypsin solution (prepared by dissolving bovine pancreas trypsin in 1 mM HCl; Washington Biochemicals), and incubated at 30° C. for three minutes. 110 μl of 1M Tris-HCl (pH 8.0) buffer containing 100 mM CaCl2 was added to this solution, then 350 μl of any of 0.6 mM, 1.2 mM and 2.3 mM Bz-DL-Arg-pNA.HCl (Nakaraitesk) solution (containing 10% DMSO) was added, and reacted at 30° C. Change on absorbance at 405 nm over time was recorded, and the initial reaction velocity of the enzyme was determined therefrom. Then, the Ki value against trypsin was determined according to a procedure which was similar to the procedure for human neutrophil elastase above.

[2] = biological target: T1, human neutrophil elastase; assay: Resistance against oxidizer: inhibitory rate against human neutrophil elastase after treatment with chloro-succinate-imide; conditions: for Inhibitory Rate against Human Neutrophil Elastase (%): amount of inhibitor 20 p mole
Description: 5 μl of peptide sample, the concentration of which was adjusted appropriately, was mixed with 5 μl of 5 mM chloro-succinate-imide [prepared by dissolving chloro-succinate-imide (Nakaraitesk) in 100 mM Tris-HCl (pH 7.5) buffer containing 500 mM NaCl], then left for 10 minutes at room temperature, and then treated with the oxidizer. Then, 5 μl of human neutrophil elastase, concentration of which was adjusted with said buffer, and 35 μl of said buffer were further added thereto, and left for 15 minutes at 30° C. 450 μl of MeOSuc-Ala-Ala-Pro-Val-pNA (Cambridge Research Bio-Chemicals) solution (containing 1% DMSO), the concentration of which was adjusted to 0.1 mM with said buffer, was added thereto and further reacted for 30 minutes at 30° C. 40 μl of acetic acid was added and absorbance at 405 nm was measured. An inhibition against an activity of human neutrophil elastase in the samples treated with the oxidizer was indicated as an inhibitory rate (%) calculated by the following formula. [formula] A: Absorbance obtained from sample not containing inhibitor. B: Absorbance obtained from sample containing inhibitor.

Ki ([1]; listed as HI-8)	Ki [1]	Ki (bovine pancreas trypsin)	Inhibitory Rate against Human Neutrophil Elastase (%) ([2]; chloro-succinate-imide 0 mM)	Inhibitory Rate against Human Neutrophil Elastase (%) ([2]; chloro-succinate-imide 2.5 mM)	Molecule	inhibitory activity against human neutrophil elastase under oxidizing conditions (in words) ([2]; treated with oxidizer chloro-succinate-imide)
~690 nM	690 nM	360 nM	–	–	R15: Recombinant HI-8 peptide (C-terminal domain Thr78-Leu143 of UTI) expressed by using the plasmid pCD17R15	–
–	120 nM	920 nM	72%	5%	Ulinastatin (protein, UniProt P02760 206-352, looked up, Inter-alpha-trypsin inhibitor light chain) Inter-alpha-trypsin inhibitor …: AVLPQEEEGSGGGQLVTEVTKKEDSCQLGYSAGPCMGMTSRYFYNGTSMACETFQYGGCMGNGNNFVTEKECLQTCRTVAACNLPIVRGPCRAFIQLWAFDAVKGKCVLFPYGGCQGNGNKFYSEKECREYCGVPGDGDEELLRFSN	oxidized and inactivated completely
